Assay results published in patent publication US8198236B2, “Methods and compositions for the treatment of cancer” (Washington University, priority 2007, dated 2012).

Experiments:
LRP5 = LRP5 (Homo sapiens, UniProt O75197); experiment: 125I-Mesd binding to HEK293 cells transiently transfected with LRP5; set-up: Plasmid pcDNA3.1C-Myc-hLRP5 containing the full-length human LRP5 cDNA; expressed in transfected cells; host or cells: HEK293 cells, transient transfection; conditions: 125I-Mesd 5 nM, 4 hours at 4° C.
Sequence of LRP5 (O75197 32-1615): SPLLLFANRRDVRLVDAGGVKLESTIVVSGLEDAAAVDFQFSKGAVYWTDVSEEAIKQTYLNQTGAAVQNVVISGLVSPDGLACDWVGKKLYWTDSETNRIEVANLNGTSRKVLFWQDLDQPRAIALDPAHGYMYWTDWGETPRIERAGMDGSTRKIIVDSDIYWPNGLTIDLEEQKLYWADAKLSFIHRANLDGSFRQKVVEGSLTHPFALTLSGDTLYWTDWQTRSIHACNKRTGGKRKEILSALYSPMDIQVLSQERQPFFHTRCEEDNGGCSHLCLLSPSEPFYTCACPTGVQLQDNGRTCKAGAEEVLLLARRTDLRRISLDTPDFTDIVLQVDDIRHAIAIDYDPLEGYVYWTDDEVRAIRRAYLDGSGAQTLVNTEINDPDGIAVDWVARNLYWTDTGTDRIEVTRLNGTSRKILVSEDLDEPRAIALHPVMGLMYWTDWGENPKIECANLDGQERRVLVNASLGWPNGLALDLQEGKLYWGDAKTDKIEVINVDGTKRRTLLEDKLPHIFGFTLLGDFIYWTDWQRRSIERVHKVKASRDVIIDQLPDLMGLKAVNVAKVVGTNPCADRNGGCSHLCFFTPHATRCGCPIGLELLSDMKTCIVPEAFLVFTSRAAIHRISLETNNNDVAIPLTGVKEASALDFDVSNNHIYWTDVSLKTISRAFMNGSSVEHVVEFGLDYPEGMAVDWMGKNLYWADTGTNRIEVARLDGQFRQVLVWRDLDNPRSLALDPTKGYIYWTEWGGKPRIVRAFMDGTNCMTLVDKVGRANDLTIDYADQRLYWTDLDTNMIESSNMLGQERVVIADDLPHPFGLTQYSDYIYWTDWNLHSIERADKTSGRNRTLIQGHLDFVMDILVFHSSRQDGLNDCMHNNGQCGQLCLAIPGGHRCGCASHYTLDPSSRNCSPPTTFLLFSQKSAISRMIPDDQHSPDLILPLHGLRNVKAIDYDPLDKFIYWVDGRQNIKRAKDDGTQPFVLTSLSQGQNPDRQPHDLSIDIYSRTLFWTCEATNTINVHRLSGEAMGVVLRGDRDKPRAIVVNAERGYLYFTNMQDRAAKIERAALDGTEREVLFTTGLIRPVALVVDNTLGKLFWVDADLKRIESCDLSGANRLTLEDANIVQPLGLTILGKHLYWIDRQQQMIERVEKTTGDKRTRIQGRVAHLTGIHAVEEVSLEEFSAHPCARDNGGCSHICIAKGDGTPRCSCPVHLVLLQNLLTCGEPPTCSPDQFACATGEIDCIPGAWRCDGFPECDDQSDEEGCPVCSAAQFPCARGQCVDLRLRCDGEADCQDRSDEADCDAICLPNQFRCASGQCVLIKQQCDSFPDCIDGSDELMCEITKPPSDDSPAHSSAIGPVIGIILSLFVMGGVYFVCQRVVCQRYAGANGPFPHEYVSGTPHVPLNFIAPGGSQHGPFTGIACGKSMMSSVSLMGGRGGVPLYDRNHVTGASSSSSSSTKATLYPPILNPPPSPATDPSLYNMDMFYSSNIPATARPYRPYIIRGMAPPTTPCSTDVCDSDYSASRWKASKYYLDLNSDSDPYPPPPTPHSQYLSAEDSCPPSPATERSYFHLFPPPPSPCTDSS
Method: Cells (2×10^5) were seeded into 12-well dishes 1 day prior to assay. Ligand-binding buffer (minimal Eagle's medium containing 0.6% BSA with a different concentration of radioligand, 0.6 ml/well) was added to cell monolayers, in the absence or the presence of 500 nM unlabeled RAP or 500 nM unlabeled Mesd, followed with incubation for 0-4 hours at 4° C. Thereafter, overlying buffer containing unbound ligand was removed, and cell monolayers were washed and lysed in low-SDS lysis buffer (62.5 mM Tris-HCl pH 6.8, 0.2% SDS, 10% v/glycerol) and counted.
To determine whether Mesd binds to other members of the LDLR family, ^125I-Mesd binding analysis was performed with four groups of cells expressing different members of the LDLR family (FIG. 2). In the first experiment, HEK293 cells were transiently transfected with cDNAs for the LDLR, LRP5, LRP6 or empty pcDNA3 vector. […]

Wnt signaling = Wnt signaling in MMTV-Wnt1 tumors (GST-E-cadherin pull-down, c-Myc expression); format: in vivo, mice; conditions: GST-E-cadherin pull-down and c-Myc expression
Method: The GST-E-cadherin pulldown assay was performed as previously described (2). Cells expressing control or LRP6 shRNA were treated with L cells or Wnt3a-conditioned media (CM) for 4 h. Free β-catenin was determined using a GST-E-cadherin pull-down assay. Cells were lysed for 30 minutes at 4° C. Protein concentrations in lysates were quantified, and equal quantities of total proteins from different samples were incubated with GST-E-cadherin Sepharose beads for 4 h at 4° C. After incubation, the beads were washed three times and the bound proteins were eluted and separated via SDS-PAGE. Western blotting was performed using antibody to β-catenin.
In these experiments, mice bearing established MMTV-Wnt1 tumor transplants were divided into three groups (five animals per group) and were i.p. injected with PBS (vehicle), Mesd, or Mesd peptide every other day. Tumor volume was analyzed using caliper measurement. Data represent at least three independent experiments and each time point represents the mean tumor volume±SEM. *p<0.05; **p<0.01. […] Scale bar=50 μm.

B1: Mesd: Recombinant full-length mouse Mesd expressed in E. coli, N-terminal polyhistidine tail, lacking the signal peptide (protein)
chain: ADTPGEATPPPRKKKDIRDYNDADMARLLEQWEKDDDIEEGDLPEHKRPSAPIDFSKLDPGKPESILKMTKKGKTLMMFVTVSGNPTEKETEEITSLWQGSLFNANYDVQRFIVGSDRAIFMLRDGSYAWEIKDFLVSQDRCAEVTLEGQMYPGKGGGSKEKNKTKPEKAKKKEGDRKPRASKEDNRAGSRREDL
modifications: left off: small tags and cut ends
notes: Recombinant full-length mouse Mesd expressed in E. coli, N-terminal polyhistidine tail, lacking the signal peptide
LRP5
  Mesd binding to LRP5: specifically binds to Mesd, albeit at lower levels compared to LRP6
Wnt signaling
  Wnt signaling in tumors compared to control treatment: decreased Wnt signaling
